Experiment [1] concerns the target Carcinoembryonic antigen (CEA) (UniProt P06731). As to the kind of experiment: SPR (Biacore 2000), oxidised CEA immobilised; relative to unmodified hA5B7 Fab′.
For experiment [2] the target is unchanged. As to the kind of experiment: SPR (Biacore 2000), oxidised CEA immobilised on CM5 chip, Fab′ injected.
Experiment [3] has as its target T1, human TNF (human, UniProt P01375 77-233).
T1 construct: Soluble human TNF, used in the L929 assay and passed over captured antibody in BIAcore; also called human TNFα
As to the kind of experiment: BIAcore as in Example 3: sample captured by anti-Fab′ antibody, human TNF passed over.

Sequence of Carcinoembryonic antigen (CEA) (P06731 35-685 limits assumed): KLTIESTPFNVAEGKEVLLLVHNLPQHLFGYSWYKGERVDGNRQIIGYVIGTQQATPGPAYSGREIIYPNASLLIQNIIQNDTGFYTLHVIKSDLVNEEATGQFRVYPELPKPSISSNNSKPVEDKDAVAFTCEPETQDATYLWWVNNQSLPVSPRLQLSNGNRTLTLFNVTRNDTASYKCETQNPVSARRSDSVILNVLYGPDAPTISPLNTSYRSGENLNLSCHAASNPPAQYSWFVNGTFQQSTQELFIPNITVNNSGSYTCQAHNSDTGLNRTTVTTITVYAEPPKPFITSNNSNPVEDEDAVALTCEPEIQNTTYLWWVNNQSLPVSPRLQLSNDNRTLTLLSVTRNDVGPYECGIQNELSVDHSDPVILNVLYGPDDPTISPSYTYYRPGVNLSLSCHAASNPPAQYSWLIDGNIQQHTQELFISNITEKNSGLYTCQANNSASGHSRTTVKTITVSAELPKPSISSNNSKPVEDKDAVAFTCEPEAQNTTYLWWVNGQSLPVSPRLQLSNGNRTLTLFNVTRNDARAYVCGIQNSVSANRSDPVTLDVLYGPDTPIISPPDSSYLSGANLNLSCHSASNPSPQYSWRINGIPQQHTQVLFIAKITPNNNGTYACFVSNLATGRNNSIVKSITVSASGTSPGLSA
T1 sequence (P01375 77-233 limits assumed): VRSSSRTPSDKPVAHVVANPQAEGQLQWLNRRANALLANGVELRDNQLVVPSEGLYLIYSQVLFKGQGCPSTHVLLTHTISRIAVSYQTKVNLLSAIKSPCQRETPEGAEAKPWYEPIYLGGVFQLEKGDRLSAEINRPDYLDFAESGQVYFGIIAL

In experiment [1], hA5B7 Fab′ (unmodified) displayed an Immunoreactivity of 100%. In experiment [2], this molecule registered a Kd of 1.87 nM, a koff of 0.000161 s⁻¹ and an on-rate (kon) of 86000 M⁻¹ s⁻¹.

B1: hTNF40 IgG (antibody, V domains shown)
VH: QIQLVQSGPELKKPGETVKISCKASGYVFTDYGMNWVKQAPGKAFKWMGWINTYIGEPIYVDDFKGRFAFSLETSASTAFLQINNLKNEDTATYFCARGYRSYAMDYWGQGTSVTVSS
VL: DIVMTQSQKFMSTSVGDRVSVTCKATQNVGTNVAWYQQKPGQSPKALIYSASFLYSGVPYRFTGSGSGTDFTLTISTVQSEDLAEYFCQQYNIYPLTFGAGTKLELKR
In experiment [3], B1 returned a Kd of 0.156 nM.

The values above are taken from patent US20040121415A1 (published 2004).
